Results reported in US20260028406A1.

Experiments:
[1] = biological target: purified human tenascin C protein (human) (UniProt P24821); assay: BLI (biolayer interferometry); format not described
[2] = biological target: purified human tenascin C protein (human) (UniProt P24821); assay: ELISA, plates coated with 3 ug/ml purified human TNC, increasing VHH concentration
[3] = biological target: EIIIB domain of fibronectin; assay: BLI (biolayer interferometry); format not described
Sequence of EIIIB domain of fibronectin (P02751 1271-1359): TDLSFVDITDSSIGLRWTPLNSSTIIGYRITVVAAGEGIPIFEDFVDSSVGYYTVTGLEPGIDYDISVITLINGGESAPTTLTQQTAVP

Sequence of purified human tenascin C protein (human) (P24821 23-2201): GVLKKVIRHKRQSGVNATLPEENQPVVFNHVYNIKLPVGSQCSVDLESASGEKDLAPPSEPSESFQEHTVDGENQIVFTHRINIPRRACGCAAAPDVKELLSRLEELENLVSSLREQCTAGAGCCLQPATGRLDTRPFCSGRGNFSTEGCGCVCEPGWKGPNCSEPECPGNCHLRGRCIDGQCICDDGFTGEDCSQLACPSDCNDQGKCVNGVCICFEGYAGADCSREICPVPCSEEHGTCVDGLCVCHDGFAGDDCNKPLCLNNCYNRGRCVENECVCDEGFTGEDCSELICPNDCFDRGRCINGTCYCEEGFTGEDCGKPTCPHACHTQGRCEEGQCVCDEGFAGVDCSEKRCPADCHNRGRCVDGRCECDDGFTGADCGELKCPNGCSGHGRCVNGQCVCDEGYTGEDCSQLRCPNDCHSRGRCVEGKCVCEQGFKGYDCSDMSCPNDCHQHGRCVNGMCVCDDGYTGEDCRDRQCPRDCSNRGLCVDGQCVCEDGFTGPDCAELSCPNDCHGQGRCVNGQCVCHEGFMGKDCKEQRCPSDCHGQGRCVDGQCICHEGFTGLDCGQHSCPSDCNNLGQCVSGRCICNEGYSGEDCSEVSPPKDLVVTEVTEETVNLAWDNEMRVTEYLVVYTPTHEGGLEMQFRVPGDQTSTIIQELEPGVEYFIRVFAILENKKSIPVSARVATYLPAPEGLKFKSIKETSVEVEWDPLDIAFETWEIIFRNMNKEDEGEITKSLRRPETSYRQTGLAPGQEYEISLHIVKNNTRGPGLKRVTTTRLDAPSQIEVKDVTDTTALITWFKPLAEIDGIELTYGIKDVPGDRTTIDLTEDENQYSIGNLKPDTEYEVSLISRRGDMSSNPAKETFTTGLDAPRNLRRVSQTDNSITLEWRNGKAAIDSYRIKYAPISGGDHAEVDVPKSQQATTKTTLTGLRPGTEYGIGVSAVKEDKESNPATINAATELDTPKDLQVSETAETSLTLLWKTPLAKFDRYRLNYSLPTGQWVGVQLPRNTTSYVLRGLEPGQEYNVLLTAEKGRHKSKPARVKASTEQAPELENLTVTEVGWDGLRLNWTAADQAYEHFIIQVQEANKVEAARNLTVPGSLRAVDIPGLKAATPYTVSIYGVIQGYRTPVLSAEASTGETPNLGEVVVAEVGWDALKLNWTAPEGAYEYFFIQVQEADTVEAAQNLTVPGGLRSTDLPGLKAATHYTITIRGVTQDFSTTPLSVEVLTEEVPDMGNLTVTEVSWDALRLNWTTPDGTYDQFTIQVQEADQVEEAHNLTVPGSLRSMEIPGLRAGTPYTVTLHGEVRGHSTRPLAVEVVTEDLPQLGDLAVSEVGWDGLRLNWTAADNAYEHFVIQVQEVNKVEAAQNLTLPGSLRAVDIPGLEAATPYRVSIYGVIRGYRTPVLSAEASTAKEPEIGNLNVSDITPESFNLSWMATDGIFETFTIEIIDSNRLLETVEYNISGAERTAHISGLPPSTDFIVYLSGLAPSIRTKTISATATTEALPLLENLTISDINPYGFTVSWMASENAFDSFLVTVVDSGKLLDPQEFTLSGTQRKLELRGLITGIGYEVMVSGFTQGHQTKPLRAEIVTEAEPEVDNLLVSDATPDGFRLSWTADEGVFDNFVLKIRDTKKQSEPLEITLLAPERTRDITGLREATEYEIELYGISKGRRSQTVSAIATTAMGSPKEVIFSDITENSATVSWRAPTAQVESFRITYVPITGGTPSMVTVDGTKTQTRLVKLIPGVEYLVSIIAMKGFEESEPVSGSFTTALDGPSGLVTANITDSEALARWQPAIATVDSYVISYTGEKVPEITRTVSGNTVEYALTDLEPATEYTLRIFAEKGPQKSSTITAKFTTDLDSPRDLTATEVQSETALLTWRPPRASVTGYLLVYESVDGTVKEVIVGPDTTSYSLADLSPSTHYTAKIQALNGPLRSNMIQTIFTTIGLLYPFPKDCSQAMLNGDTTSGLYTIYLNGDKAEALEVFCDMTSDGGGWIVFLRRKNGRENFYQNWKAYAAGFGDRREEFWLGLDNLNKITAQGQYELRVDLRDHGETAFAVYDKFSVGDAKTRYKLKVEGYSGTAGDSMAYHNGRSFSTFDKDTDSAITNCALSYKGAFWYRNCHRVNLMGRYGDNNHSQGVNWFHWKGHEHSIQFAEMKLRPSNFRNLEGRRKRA

B1: NJT3 nanobody (VHH) (VHH)
VHH: QVQLVETGGGLAQAGGSLRLSCAASGRTLSGYAMGWFRQAPGKEREFVAAISWSGRNTYYDYTVQGRFTISKDNAKNTVNLQMNSLKPEDTAVYYCAVSRSLDEFGDGYEMDYWGDGTQVTVSS
B1 was tested. Which Kd [1] did it give?
Its Kd is under 1 pM.

What about the EC50 (read off the curve) [2] of the same binder?
The EC50 (read off the curve) was 0.02 ng/mL.

B2: NJT6 nanobody (VHH) (VHH)
VHH: QVQLVETGGDLVQPGGSLRLSCAASGLTLDYYAIGWVRQAPGKEREGVSCITPQDGNTYYDDSVMGRFTILRDNAKNMVYLQMNNLKPEDTAVYFCAAAGALTLDPSEYEYWGQGTQVTVSS
What does the source list for B2?
Kd [1]: < 1 pM; EC50 (read off the curve) [2]: 0.01 ng/mL

B3: NJB2 nanobody (VHH) (VHH)
VHH: QVQLVETGGGLVQAGGSLRLSCAASGSTFSHNAGGWYRQAPEKQRELVAGISSDGNINYADSVKDRFTISRDNASNTMYLQMNNLKPEDTAVYVCNIRGSYGNTYYSRWGQGTQVTVSS
B3 was tested. Which Kd [3] did it give?
Its Kd is 4000 pM.

B4: NJT4 nanobody (VHH) (VHH)
VHH: QVQLVESGGGLVQPGGSLRLSCAASGFTFSSYTMRWYRQAPGKERELVAFIGVAGGSTKYADSVKGRFTISRDNTKNTVYLQMNTLKPEDTAVYYCYAPLTPYWGQGTQVTVSS
With B4 as the binder, how does the Kd [1] read?
The Kd was under 1 pM.
